Results: PMC13344369
Read-outs that look alike come from different tables or passages of the source.

Key:
[1] = target: T1, IFN-γ (interferon gamma) (UniProt P01579 24-161); test: graphene-Nafion FET biosensor
[2] = target: T1, IFN-γ (interferon gamma); test: graphene-Nafion FET biosensor; remark: listed apart in the source

T1 sequence (P01579 24-161): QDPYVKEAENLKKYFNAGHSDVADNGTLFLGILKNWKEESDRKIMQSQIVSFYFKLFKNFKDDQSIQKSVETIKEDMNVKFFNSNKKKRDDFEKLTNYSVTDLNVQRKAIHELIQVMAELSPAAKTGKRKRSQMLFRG

GGGGTTGTTTGTGTTGGGTGTTGTGT (ssDNA, 5'-NH2) [IFN-γ-specific aptamer] was tested, and the Kd [1] was 4.39 nM and the Kd [2] was 4.21 nM.
